{"source": "patent US12702697B2", "about": "“Compositions and methods for treatment of headache disorders and neuropathic pain” (Washington University, priority 2019, dated 2026)", "molecules": {"B1": {"name": "ld-IL2: Recombinant mouse IL2 (carrier-free; Biolegend), given as daily low-dose i.p. injection (protein, UniProt P04351 21-169, looked up)", "Interleukin-2": "APTSSSTSSSTAEAQQQQQQQQQQQQHLEQLLMDLQELLSRMENYRNLKLPRMLTFKFYLPKQATELKDLQCLEDELGPLRHVLDLTQSKSFQLEDAENFISNIRVTVVKLKGSDNTFECQFDDESATVVDFLRRWIAFCQSIISTSPQ"}}, "test_system": "NTG-induced skin hypersensitivity in mice", "experiment": "Mouse model of chronic migraine (repetitive NTG): hindpaw and facial von Frey thresholds, cheek acetone test", "type": "in vivo", "experimental": "Mouse model of chronic migraine and drug treatments: After measuring baseline nociceptive responses, mice received repetitive intraperitoneal (i.p.) injections of NTG (10 mg/kg in saline with 1% propylene glycol) or vehicle (saline with 1% propylene glycol in saline, 10 mL/kg) every 2 days for 4 or more times as described previously (Pradhan A A, et al. PAIN 2014; 155:269-74). Nocifensive behaviors were measured 2 days after each injection (before the next treatment). NTG (SDM27; Copperhead Chemical, Tamaqua, PA) was freshly diluted from the stock (10% in propylene glycol, aliquoted in airtight glass vials and stored at 4° C.) with saline for every injection. Recombinant mouse IL2 (carrier-free; Biolegend, San Diego, CA) was freshly diluted from the stock (1 mg/mL aliquots at […]) every day. Each mouse received daily i.p. injection of […] IL2 in […] saline. The control mice received daily i.p. injections of […] saline. In Treg depletion experiment, mice received 1 i.p. injection of antibodies against CD25 ([…], BP0012; BioXcell, West Lebanon, NH11) or control IgG (BP0088; BioXcell). The antibody binds to CD25 on Treg cell membrane and depletes Treg cells through Fcg receptor III-mediated antibody-dependent cellular cytotoxicity and antibody-dependent cellular phagocytosis (Setiady Y Y, et al, Eur J Immunol 2010; 40:780-6). Note that on the days that the mouse behaviors were tested, NTG, IL2 and/or antibodies were always injected after completing the behavioral tests.\nResponses to mechanical stimuli on the hindpaw. Mice were habituated in individual clear plexiglass boxes (11×11×15 cm) for 1 to 2 hours. A series of calibrated von Frey filaments was used to apply mechanical stimuli to the plantar surface of the hindpaws. The up-down paradigm was used to determine the 50% withdrawal threshold. The thresholds for both hindpaws were averaged to yield a single value for each mouse.\nCheek acetone test. The acute nocifensive response to acetone-evoked evaporative cooling on mouse cheek was measured as previously described (Constandil L, et al. J Pain 2012; 13:579-89). The day before testing, both cheeks were shaved (6.5×12 mm) under brief anesthesia (2% isoflurane in 100% oxygen). On the test day, mice were habituated in individual plexiglass cylinders (11-cm diameter, 15-cm height) situated in front of 3-way mirrors for 1 to 2 hours. Acetone ([…]) was applied to the shaved cheeks and immediately returned mice to the cylinders. Time spent wiping the treated area was recorded by a video camera and quantified offline. For individual mice, acetone was applied alternatingly to both cheeks at 10-minute intervals, and the duration of behavior was averaged from 4 applications.\nWithdrawal responses to facial mechanical stimuli. The hair on mouse forehead (above and between 2 eyes) was shaved the day before testing. On the test day, the experimenter gently held the mouse on the palm with minimal restraint and applied the calibrated von Frey filament perpendicularly to the shaved skin, causing the filament to bend for 5 seconds. A positive response was determined by the following criteria as previously described: mouse vigorously stroked its face with the forepaw, head withdrawal from the stimulus, or head shaking (Elliott M B et al., Headache 2012; 52:966-84). The up-down paradigm was used to determine the 50% withdrawal threshold. […]", "key": {"[1]": {"settings": "ld-IL2 pretreatment, female C57BL/6J"}}, "data": [{"molecule": "B1", "values": [{"measurement": "basal hindpaw mechanical sensitivity", "setting": "5 or 15 days of ld-IL2 injections, male C57BL/6J", "value": "not altered"}, {"measurement": "established persistent facial mechanical hypersensitivity resulting from repeated NTG injections", "setting": "after 7 to 9 days of IL2 injections, female Swiss Webster", "value": "completely reverse"}, {"measurement": "behavioral sensitization by subsequent NTG administrations", "setting": "continuous ld-IL2, female C57BL/6J, day 7-11", "value": "prevented"}, {"measurement": "baseline facial mechanical threshold", "setting": "daily ld-IL2, female Swiss Webster", "value": "not altered"}, {"measurement": "daily ld-IL2 treatments to completely reverse NTG-induced facial hypersensitivity, first session", "setting": "day 4-10, male C57BL/6J", "value": 7}, {"measurement": "slope of ld-IL2-induced reversal (change of threshold per day), first session", "setting": "day 5-11, male C57BL/6J", "value": "5.3±0.9"}, {"measurement": "acute reduction of facial mechanical threshold 3 hours after NTG", "setting": "day 11, after 7 ld-IL2 injections, female C57BL/6J", "value": "did not cause an acute reduction"}, {"measurement": "NTG injections needed after cessation of IL2 to lower the threshold to the NTG+saline level, first session", "setting": "day 11-13, male C57BL/6J", "value": 2, "unit": "NTG injections"}, {"measurement": "ld-IL2 injections required to completely reverse NTG-induced mechanical hypersensitivity, second session", "setting": "day 19-22, male C57BL/6J", "value": 4, "unit": "injections"}, {"measurement": "slope of ld-IL2-induced reversal (change of threshold per day), second session", "setting": "day 19-23, male C57BL/6J", "value": "10.3±1.3"}, {"measurement": "NTG injections needed after cessation of the second ld-IL2 treatment to reduce the threshold to the NTG+saline level", "setting": "day 23-27, male C57BL/6J", "value": 3, "unit": "NTG injections"}, {"measurement": "development of facial cold hypersensitivity", "setting": "delayed ld-IL2 started after 2 NTG injections, female Swiss Webster", "value": "blocked the development"}, {"measurement": "ld-IL2 injections sufficient to completely reverse the effect of repeated NTG", "setting": "female C57BL/6J", "value": 3, "unit": "injections"}, {"measurement": "NTG-induced hindpaw mechanical hypersensitivity", "setting": "ld-IL2 pretreatment starting 5 days before first NTG, male C57BL/6J", "value": "completely blocked"}, {"measurement": "NTG-induced facial cold hypersensitivity", "setting": "[1]", "value": "prevented the development"}, {"measurement": "basal responses to acetone-induced cooling", "setting": "[1]", "value": "did not change"}, {"measurement": "days of ld-IL2 treatment after which NTG-induced mechanical hypersensitivity started to reverse", "setting": "ld-IL2 started after 2 NTG injections, female Swiss Webster", "value": 5, "unit": "days"}, {"measurement": "effect of ld-IL2 on NTG-induced facial skin hypersensitivity in Treg-depleted mice", "setting": "mice given anti-CD25 antibody 3 days earlier, male C57BL/6J", "value": "completely abolished"}]}]}
